Assay [1] concerns the target T1, ActRIIA-mFc (human, UniProt P27037 21-135).
T1 construct: also called RAP-011; sotatercept analog RAP-011; not shown: "minimal linker"; mouse Fc domain
Put plainly: SPR (Biacore), ligand amine-coupled on CM5 chip, ActRIIA-mFc as analyte. On the procedure: GDF11 or activin A were immobilized on a Biacore™ CM5 chip using standard amine-coupling procedure. ActRIIA-hFc and ActRIIA-mFc proteins were loaded onto the system, and binding was measured. […] Using a similar binding assay, ActRIIA-hFc was determined to have high to moderate affinity for other TGF-beta superfamily ligands including, for example, activin B, GDF8, BMP6, and BMP10. ActRIIA-mFc behaved similarly.
For orientation: In SPR one partner is held on a chip, and binding of the other changes the refractive index at the surface.

In assay [2] the target is T1, ActRIIA-mFc. Put plainly: similar binding assay (Biacore).

T1 sequence (P27037 21-135): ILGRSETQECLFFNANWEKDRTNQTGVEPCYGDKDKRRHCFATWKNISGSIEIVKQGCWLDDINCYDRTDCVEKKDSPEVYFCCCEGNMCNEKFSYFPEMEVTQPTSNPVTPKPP

B1: GDF11 (ligand, UniProt O95390 299-407, looked up)
chain: NLGLDCDEHSSESRCCRYPLTVDFEAFGWDWIIAPKRYKANYCSGQCEYMFMQKYPHTHLVQQANPRGSAGPCCTPTKMSPINMLYFNDKQQIIYGKIPGMVVDRCGCS
notes: Immobilized on a Biacore CM5 chip by amine coupling
For the molecule B1, in assay [1], the binding result is given as “binds”.

B2: BMP10 (ligand, UniProt O95393 317-424, looked up)
chain: NAKGNYCKRTPLYIDFKEIGWDSWIIAPPGYEAYECRGVCNYPLAEHLTPTKHAIIQALVHLKNSQKASKACCVPTKLEPISILYLDKGVVTYKFKYEGMAVSECGCR
In the case of B2, in assay [2], the binding result is reported as “binds”.

Values taken from patent US20240174733A1 (ACCELERON PHARMA, published 2024).
